# Measurements reported in FireProtDB (doi:10.1093/protein/15.6.455).
# B1: Cytochrome c-551, P00099 (parent)
# chain: MKPYALLSLLATGTLLAQGAWAEDPEVLFKNKGCVACHAIDTKMVGPAYKDVAAKFAGQAGAEAELAQRIKNGSQGVWGPIPMPPNAVSDDEAQTLAKWVLSQK
# Variants of: B1
# Conditions: Pseudomonas aeruginosa (strain ATCC 15692 / DSM 22644 / CIP 104116 / JCM 14847 / LMG 12228 / 1C / PRS 101 / PAO1), pH 3.6, Thermal, DSC, sodium acetate 50 mM, reversible: yes, structure 451C, whole UniProt chain shown; for ddG of mutation (higher = less stable) / heat capacity change of unfolding / unfolding enthalpy (calorimetric): 62.6 °C
Variant,ddG of mutation (higher = less stable),heat capacity change of unfolding,unfolding enthalpy (calorimetric),Tm,"change of melting temperature, mutant - wild type (higher = more stable)"
MKPYALLSLLATGTLLAQGAWAEDPEVLFKNKGCVACHAIDTKMVGPAYKDVAAKFAGQAGAEAELAQRIKNGSQGVWGPIPMPPNAVSDDEAQTLAKWILSQK,-1.11 kcal/mol,0.73 kcal/mol/K,65.6 kcal/mol,–,–
MKPYALLSLLATGTLLAQGAWAEDPEVLAKNKGCMACHAIDTKMVGPAYKDVAAKYAGQAGAEAYLAQRIKNGSQGVWGPIPMPPNAVSDDEAQTLAKWILSQK,-4.55 kcal/mol,1.12 kcal/mol/K,71.1 kcal/mol,82.4 °C,19.8 °C
MKPYALLSLLATGTLLAQGAWAEDPEVLFKNKGCVACHAIDTKMVGPAYKDVAAKYAGQAGAEAYLAQRIKNGSQGVWGPIPMPPNAVSDDEAQTLAKWVLSQK,-1.26 kcal/mol,0.74 kcal/mol/K,65.5 kcal/mol,69 °C,6.4 °C
MKPYALLSLLATGTLLAQGAWAEDPEVLAKNKGCMACHAIDTKMVGPAYKDVAAKYAGQAGAEAYLAQRIKNGSQGVWGPIPMPPNAVSDDEAQTLAKWVLSQK,-3.02 kcal/mol,1 kcal/mol/K,64.8 kcal/mol,77.4 °C,14.8 °C
MKPYALLSLLATGTLLAQGAWAEDPEVLAKNKGCMACHAIDTKMVGPAYKDVAAKFAGQAGAEAELAQRIKNGSQGVWGPIPMPPNAVSDDEAQTLAKWILSQK,-2.61 kcal/mol,0.92 kcal/mol/K,64.4 kcal/mol,–,–
MKPYALLSLLATGTLLAQGAWAEDPEVLFKNKGCVACHAIDTKMVGPAYKDVAAKYAGQAGAEAYLAQRIKNGSQGVWGPIPMPPNAVSDDEAQTLAKWILSQK,-2.21 kcal/mol,0.95 kcal/mol/K,67 kcal/mol,73.3 °C,10.7 °C
MKPYALLSLLATGTLLAQGAWAEDPEVLAKNKGCMACHAIDTKMVGPAYKDVAAKFAGQAGAEAELAQRIKNGSQGVWGPIPMPPNAVSDDEAQTLAKWVLSQK,-1.88 kcal/mol,0.64 kcal/mol/K,64.2 kcal/mol,72.4 °C,9.8 °C
